PMC8184850, “Cryo-EM structure of TFIIH/Rad4–Rad23–Rad33 in damaged DNA opening in nucleotide excision repair” (Nature Communications, 2021)

T1: Tfb2 (yeast, UniProt Q02939 1-513)
T1 construct: Tfb2 (p52 homologue), subunit of yeast coreTFIIH; Tfb2C 412–513 as printed; Stood in the assays as part of coreTFIIH; also called yeast homologue of p52; source: purified from yeast as a subunit of coreTFIIH
T1 sequence (looked up): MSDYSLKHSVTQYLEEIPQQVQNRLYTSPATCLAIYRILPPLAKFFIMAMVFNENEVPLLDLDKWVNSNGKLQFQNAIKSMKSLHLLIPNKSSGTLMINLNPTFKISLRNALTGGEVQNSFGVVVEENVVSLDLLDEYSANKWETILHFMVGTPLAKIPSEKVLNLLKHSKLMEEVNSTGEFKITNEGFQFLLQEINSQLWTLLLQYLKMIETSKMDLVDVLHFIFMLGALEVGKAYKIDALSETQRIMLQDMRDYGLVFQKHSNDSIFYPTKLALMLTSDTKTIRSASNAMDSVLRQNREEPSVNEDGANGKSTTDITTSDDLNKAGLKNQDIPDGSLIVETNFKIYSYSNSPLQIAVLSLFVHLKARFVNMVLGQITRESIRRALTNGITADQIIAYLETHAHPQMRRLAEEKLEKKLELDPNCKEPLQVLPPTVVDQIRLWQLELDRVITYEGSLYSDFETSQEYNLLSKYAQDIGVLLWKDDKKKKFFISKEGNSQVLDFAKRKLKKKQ

T2: Full-length Rad4–Rad23 complex (yeast, UniProt P14736 1-754; P32628 1-398)
T2 construct: Rad4 (XPC homologue), yeast; Rad23 (RAD23B homologue), yeast; also called Rad4–23; yeast homologue of XPC–RAD23B
T2 sequence (looked up) 1: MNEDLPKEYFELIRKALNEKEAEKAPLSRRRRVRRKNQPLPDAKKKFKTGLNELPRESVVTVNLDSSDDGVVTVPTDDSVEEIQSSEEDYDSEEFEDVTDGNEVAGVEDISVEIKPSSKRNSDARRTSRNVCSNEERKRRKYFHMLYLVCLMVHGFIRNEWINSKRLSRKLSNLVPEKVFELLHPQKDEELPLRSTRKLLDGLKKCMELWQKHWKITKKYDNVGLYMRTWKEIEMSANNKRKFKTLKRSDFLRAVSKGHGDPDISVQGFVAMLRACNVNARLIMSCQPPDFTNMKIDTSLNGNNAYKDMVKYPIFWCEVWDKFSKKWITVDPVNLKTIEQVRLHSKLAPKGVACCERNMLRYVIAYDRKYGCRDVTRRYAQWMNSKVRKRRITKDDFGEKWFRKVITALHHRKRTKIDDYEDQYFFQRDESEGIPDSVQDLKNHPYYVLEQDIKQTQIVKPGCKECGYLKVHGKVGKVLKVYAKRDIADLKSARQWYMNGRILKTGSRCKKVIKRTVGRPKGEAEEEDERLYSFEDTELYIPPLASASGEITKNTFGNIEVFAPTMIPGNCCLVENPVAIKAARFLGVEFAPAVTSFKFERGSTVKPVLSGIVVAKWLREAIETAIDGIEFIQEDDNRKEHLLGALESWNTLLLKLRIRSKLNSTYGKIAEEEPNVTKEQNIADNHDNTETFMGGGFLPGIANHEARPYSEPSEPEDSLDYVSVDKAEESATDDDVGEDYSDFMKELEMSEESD
T2 sequence (looked up) 2: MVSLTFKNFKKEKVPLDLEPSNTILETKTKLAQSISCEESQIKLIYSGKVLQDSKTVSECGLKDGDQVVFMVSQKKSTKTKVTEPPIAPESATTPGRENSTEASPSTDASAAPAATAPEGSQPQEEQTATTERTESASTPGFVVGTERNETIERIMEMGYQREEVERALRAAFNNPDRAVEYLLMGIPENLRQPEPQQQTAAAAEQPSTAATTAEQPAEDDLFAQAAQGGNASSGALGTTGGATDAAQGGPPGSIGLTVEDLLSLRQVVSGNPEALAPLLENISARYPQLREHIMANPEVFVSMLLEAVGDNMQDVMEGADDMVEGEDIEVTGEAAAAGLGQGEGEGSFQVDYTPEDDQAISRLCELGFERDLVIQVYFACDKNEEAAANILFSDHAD

T3: Rad4 (yeast, UniProt P14736 1-754)
T3 construct: Rad4 (XPC homologue), yeast; Stood in the assays as part of Rad4–Rad23–Rad33; written alone for the contacts of the subunit; also called yeast homologue of XPC; source: Hi5 insect cells, co-expressed with Rad23, purified as the Rad4–Rad23 complex
T3 sequence (looked up): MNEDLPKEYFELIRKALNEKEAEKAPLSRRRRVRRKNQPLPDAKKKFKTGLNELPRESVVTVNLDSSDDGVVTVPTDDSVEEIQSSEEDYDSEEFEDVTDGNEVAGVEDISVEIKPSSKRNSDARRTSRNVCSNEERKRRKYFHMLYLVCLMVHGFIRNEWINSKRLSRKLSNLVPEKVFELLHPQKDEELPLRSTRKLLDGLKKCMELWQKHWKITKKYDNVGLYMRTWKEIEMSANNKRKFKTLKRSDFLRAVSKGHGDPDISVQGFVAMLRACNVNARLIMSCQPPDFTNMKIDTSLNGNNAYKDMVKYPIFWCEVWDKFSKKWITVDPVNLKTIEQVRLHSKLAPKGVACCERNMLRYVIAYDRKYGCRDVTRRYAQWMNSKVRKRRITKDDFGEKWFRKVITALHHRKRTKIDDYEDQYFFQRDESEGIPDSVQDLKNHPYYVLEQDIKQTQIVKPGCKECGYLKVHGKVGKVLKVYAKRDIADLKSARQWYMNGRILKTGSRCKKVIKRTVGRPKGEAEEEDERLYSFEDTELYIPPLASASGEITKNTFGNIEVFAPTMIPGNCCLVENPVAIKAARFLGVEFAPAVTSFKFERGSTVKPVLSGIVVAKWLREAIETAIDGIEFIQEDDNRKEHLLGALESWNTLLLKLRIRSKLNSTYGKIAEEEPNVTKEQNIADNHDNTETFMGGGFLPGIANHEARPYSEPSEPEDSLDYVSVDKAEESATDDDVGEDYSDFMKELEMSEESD

T4: Ssl2 (Saccharomyces cerevisiae, UniProt Q00578 1-843)
T4 construct: Ssl2 (XPB homologue), subunit of yeast coreTFIIH; C-Ssl2 549–776, C-terminal region 771–843 as printed; Stood in the assays as part of coreTFIIH; also called yeast homologue of XPB; source: purified from yeast as a subunit of coreTFIIH
T4 sequence (looked up): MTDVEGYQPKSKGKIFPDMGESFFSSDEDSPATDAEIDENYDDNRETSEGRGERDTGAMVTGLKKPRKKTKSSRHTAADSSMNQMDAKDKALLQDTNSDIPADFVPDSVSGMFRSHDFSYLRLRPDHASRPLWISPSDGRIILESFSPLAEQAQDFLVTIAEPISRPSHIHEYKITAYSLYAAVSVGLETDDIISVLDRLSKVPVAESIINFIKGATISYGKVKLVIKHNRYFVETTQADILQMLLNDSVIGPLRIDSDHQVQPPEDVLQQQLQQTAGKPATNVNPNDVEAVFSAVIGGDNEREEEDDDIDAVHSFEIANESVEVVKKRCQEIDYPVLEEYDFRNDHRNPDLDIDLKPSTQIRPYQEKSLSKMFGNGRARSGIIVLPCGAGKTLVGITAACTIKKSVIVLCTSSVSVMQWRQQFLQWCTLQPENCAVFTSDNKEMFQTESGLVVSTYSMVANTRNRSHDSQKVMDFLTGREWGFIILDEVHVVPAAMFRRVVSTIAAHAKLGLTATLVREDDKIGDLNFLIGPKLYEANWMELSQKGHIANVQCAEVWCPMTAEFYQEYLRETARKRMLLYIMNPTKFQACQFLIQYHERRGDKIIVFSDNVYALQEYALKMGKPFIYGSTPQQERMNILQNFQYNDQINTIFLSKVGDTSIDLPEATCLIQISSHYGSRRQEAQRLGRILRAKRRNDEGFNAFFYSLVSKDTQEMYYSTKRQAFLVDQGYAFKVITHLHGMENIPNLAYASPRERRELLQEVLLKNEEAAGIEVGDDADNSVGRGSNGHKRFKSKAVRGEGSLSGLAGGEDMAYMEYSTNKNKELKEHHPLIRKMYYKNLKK


What was measured:
Conditions in all cases: both partners purified
Tfb2 = biological target: T1, Tfb2; assay: cryo-EM structure; coreTFIIH and Rad4–Rad23–Rad33 on −24*/+24 AAF-DNA with ATP, glycerol gradient with glutaraldehyde; Map 1 3.86 Å (TFIIH), Map 2 9.2 Å, Map 3 7.9 Å; Rad4, Rad33 and the Tfb1 PH domain placed by rigid-body docking of known structures or homology models
[1] = biological target: T2, Full-length Rad4–Rad23 complex; assay: co-sedimentation; 10–40% glycerol gradient (20 mM HEPES, 150 mM potassium acetate, 2 mM magnesium acetate, 4 mM DTT, 2 mM ATP or AMP-PNP), 52,000 rpm 6 h 35 min, 4 °C; Rad4–Rad23–Rad33 pre-assembled on −24*/+24 AAF-DNA, then added to TFIIH; fractions by SDS-PAGE
Rad4 = biological target: T3, Rad4; assay: cryo-EM structure; coreTFIIH and Rad4–Rad23–Rad33 on −24*/+24 AAF-DNA with ATP, glycerol gradient with glutaraldehyde; Map 1 3.86 Å (TFIIH), Map 2 9.2 Å, Map 3 7.9 Å; Rad4, Rad33 and the Tfb1 PH domain placed by rigid-body docking of known structures or homology models
Ssl2 = biological target: T4, Ssl2; assay: as above

binding result (Tfb2) | binding result [1] | binding result (Rad4) | binding result (Ssl2) | Binder
binds |  |  |  | Tfb5 (natural protein, yeast, UniProt Q3E7C1 1-72, looked up, Tfb5 (p8 homologue), subunit of yeast coreTFIIH; Stood in the assays as part of coreTFIIH; also called yeast homologue of p8; source: purified from yeast as a subunit of coreTFIIH) MARARKGALVQCDPSIKALILQIDAKMSDIVLEELDDTHLLVNPSKVEFVKHELNRLLSKNIYNPMDEEENQ
 | binds | binds | binds | Rad33 (natural protein, yeast, Rad33 (CETN2 homologue), yeast; plasmid pETDuet-RAD33; also called yeast homologue of CETN2; source: E. coli Rosetta(DE3), purified (HisTrap, Q column)) MSKSTNVSYERVELFENPKVPIEVEDEILEKYAESSLDHDMTVNELPRFFKDLQLEPTIWKLVRNEDVIIEGTDVIDFTKLVRCTCQLLILMNNLTVIDDLWSMLIRNCGRDVDFPQVALRDHVLSVKDLQKISNLIGADQSSGTIEMISCATDGKRLFMTYLDFGCVLGKLGYLKM
